Reference: paper PMC12448856, “Decoding the base flipping mechanism of the SET- and RING-associated (SRA) domain of the epigenetic UHRF1 protein”

Key:
[1] = target: T1, UHRF1 SRA domain (human, UniProt Q96T88 408-643); test: intrinsic Trp fluorescence titration; 1 uM SRA; 20 mM PBS pH 7.5, 50 mM NaCl, 2.5 mM TCEP, 0.05% PEG 20000, 20 C; duplex 1 uM in anisotropy; conditions: protein: recombinant; 12 bp duplex
T1 sequence: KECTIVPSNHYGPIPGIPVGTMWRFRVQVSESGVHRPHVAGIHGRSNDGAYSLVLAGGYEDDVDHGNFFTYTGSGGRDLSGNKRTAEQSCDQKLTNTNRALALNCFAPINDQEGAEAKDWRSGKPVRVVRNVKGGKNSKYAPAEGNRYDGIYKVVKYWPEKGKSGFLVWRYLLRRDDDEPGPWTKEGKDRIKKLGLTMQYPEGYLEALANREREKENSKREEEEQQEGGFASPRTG

[2] = target: T1, UHRF1 SRA domain; test: as above; conditions: protein: recombinant; 12 bp duplex; remark: listed apart in the source

B1: NM duplex, unlabelled (dsDNA)
DNA 1: GGGCCCGCAGGG
DNA 2: CCCTGCGGGCCC
- Ka [1]: 1.43 ± 0.07 10^6 M-1

B2: HM duplex, unlabelled (dsDNA)
DNA 1: GGGCCCGCAGGG
DNA 2: CCCTGCGGGCCC
modifications: 5mC at position 6 of strand 1
- Ka [2]: 8.1 ± 0.2 10^6 M-1
